Test results from the DeepSol protein solubility set.

Test: soluble on expression in E. coli; label from the status in PepcDB or PDB records
With “MSLRKNIFFIVFIILCAVSCTEKKSNFINTVHLKGQLLDMGSQNVRMRFDGAASMLGDSRDILLKTDAAGYFDTTFVLKEPTYYTISRNTLYLTPGDDMTIKVTQTNTEAEFSGIGAEANNYMKFRLFPKGGSYLEAGGNLRGDFVSTKALVDSLAAIRMHTLDTLSNVSDAFKKLETARIKADIINSYICYASYSRMFAEVKNEEEMRAKWNEFNVSLTQDVTPLYKEIVNEDMLNVAVVRDVLSYQEDSTLASLWFKDISIPARTTELYACAKIVDNLRNEASEQTVNEAKAFLQTVKNADFATEIEGKIVQASKLLPGQPAIDFEMLDVEGNVKHLADFKGKVIYIDLWATWCGPCIQESPAFEALGKKYVGKDIVFLPVSTDTTTKPWLRYLDGHKKELTQYHSNDVALKESWAIMYIPRFILIDKDFNIVNAYAPRPSSEEIGTLIDSVLNKEGHHHHHH” the “soluble on expression in E. coli” value was “soluble”.
With “MLKNLRIGKFEPEEEYVHFTYSIKNSEREKSKELIKEYRTLLQKAIDYLWSLTKIQVRKKNGNYKITLPKKKEVYKPLREELEKINHLASHYVDKAINDAFSILKSWRKRAIKGRASIEKPRVKKAYVRIKTTLRKVVGESVRITVRPHEYITFPWSKSWFSRRVRELELGEPIIKEEKVYLPFRYKLPWVTPVNFLAIDSNLYTLDAYDGEKFVTISLKQLYSLKYSMEVKRAKVQSFASKHTKRGRELMRKYSHRERNRVLDFVHKFVNALLDLYPMTFFAVEKLDKEGMFVDANESLSRKISRTVWRSIHRVLKYKAPLYGSFVKEVNPYLTSRSCPRCGFVSRKVGKTFECERCGFKLDRQLNASLNIYLKMCGFPHIREIARVWVGVIPLMGRRGMNVRDFGEAQGLRINIKYHEIPLEHHHHHH” the “soluble on expression in E. coli” value was “not soluble”.
With “NKMAMIDLAKLFLASKITAIEFSERICVERRRLYGVKDLSPNILNCGEELFMAAERFEPDADRANYEIDDNGLKVEVRSILEKFKLHHHHH” the “soluble on expression in E. coli” value was “soluble”.
In the case of “MSLKIVSFQDTKQNTGMESAEISEELNKLSKEKSDLQKKVNELQSQVKGYQNAAASSGSMNKQIVNELNTSNMLIGSVDVTGPGIILVITPQNISSSTNNSTGQNNDVITGEDLLYLINELNFSQAEAISINDVRITSMTGIRSSSGGSDIFVGDDRISPYEKITIKAIGDSKLLYSALSYPGVLSSVPSGYKADYDKYGSIKIGKTNKVIKFDYAKPISKEGHHHHHH”, the “soluble on expression in E. coli” value is reported as “soluble”.
With “MSLTLYKPNETDFTHNGIGALDKNIYNATVEEELNGLFLFSFSYPLFAPHGLEIEGMSIIKVPTPDGEQLFRVAAPKASMGEVTAQCYHIFYDLTENLIEDIFAETTNGNGAMNRMSAGCQYKHPFQFYSDVPKIASARIVRKNPVEALLDSSQDNSFVNRWGGELKRDNFDVKMLQNRGMDRGVVIRHKKDLLGYEGNVDWKSPITRIMPQGFDGLFLPEKYVDSPLINKYPHPKIKVVEFKHIKAAIGENADDEDAVPLEEAYRLLRQAAKGMFTIQKADQPKATYNVKFQELSQTEEYKDYKHLQSVYMADTVTVEHQEDGIDIKAKVIAYKYDPIKKEYLDVTIGNFKESFTDVSGRVDLVQEELSNMPSSILDAAKVNATSLINSGFGGHVRVYPNRILIMDTKDEKSAKKVWQWNLNGLGYSSTGVNGPYGTAITSDGRIVADFITAGTLSGNFVRGGEITGSTEGHHHHHH” the “soluble on expression in E. coli” value was “soluble”.
With “MTDGSMDIDAMLEGGLEMAKNDRSQSRQRSPARSNRSRSRSKDRKSSSRRSRSRSRDRRGDRGDRRRSRSRSKDRRTTRRRSPSRERRRSRSRDRGAPRRRSRTRSRDRRRSPPRRRDRRTPPRRSPGRRSPPRSRLPGPERRDVMPFNPRHSPPKNAKLELTAEERDQRTLLIMQIARDTRPRDLEEFFSAVGAVRDVRIITDSRTGRSKGICYVEFWDEESVPLGLALNGQRLMGAPLQIQRTCAERNRAANSSVASTLGFVAPGNKGPTHVLVENLHPKIDEKMIRDIFESFGRIEKIDLEVDSNRENRGFATITFRNADDAQKSCEQLNNFELAGRCIRLSIKQESQAPAVKKEEASIHQRSLDDVGDRQGFSLGAGGRQQLMAKLAQGTGSGMELTASAQMAAQHAGHSQIPSIATQCFLLSNMFDPSKETEPAWDHDIREDVIEQCLAHGGALHVFVDKGSEQGNVYVKCPSIVIAHQAVSALHGRWFSGKVITANYVPVNSYHDLFPDAVHARIVLTTRGAAPVVPIVPMVPVVPPQGIANGYGAYGMMAPAHGAPPPPPPQQQGQYGGYGRY” the “soluble on expression in E. coli” value was “not soluble”.
In the case of “MSLRSDSFEILRDCRALFLKHLGALLLDSGIISGSAIRAIQEGAGAYFDEMVSTTRRGSFSEEAHGLTSSRITLVGEDDLELGIRLDNLSARLFETTGGSLWRTHLRFVTLLRRPDLPKSANPIGPKGICQGLTTMFAASGASSIEQKLALLDRIEVYLLANLPGLYAEINDFLDRGGIEAAQATILGSPDGPKQADQSSANPLLALQQQLLARLPGGIASIQPPTGTGGAAASLLSQASLEQLIFRLNELDRQGAFRAQFKPGTSLSTESLIPELFSGSTAKASLPKALNSAELGIPSTATEGLAIDTLAIIFEAIFSEPTLPDTLKAAISSLQITLLKMAMKDASLFTDDKHPARLVIDRMGQAVLGLPTDVPARHPVCARLFEIASQLRSGNGDISAFQSALTQLDALVAERNNELAKSAAAYLPLLRQLDRRDEASIQTRHILDKLIEQKPPEAVQAFLNESWRKVLQLVWLENGPDSSQWQAHVTAIEELLWSFQPKTDPAERKSLAHRLPNILKLLKTGMERIGLPTEAQEAFLDDCFTLQTQALRAAPAAETGATSVIAATGLHASGSETVYGDVQSGQFVLNTLDFSDYQPGPARSLSCAIGDWLELRIDDSTTRVARICYISPNSQRTLLLNPDFGLALAIHPAILDRQLRAGEARIRSASSLFEIAASRALQKTTTNEGHHHHHH”, the “soluble on expression in E. coli” value is reported as “soluble”.
For “MSLQEGEFEPTWESLQNYKVPEWFRNAKFGIWAHWGPQCVEGSGDWMARSLYLEGSREYKHHVEHYGHPSEVGFKDILPLFKAEKWDPDKLVSFYKKIGAQYFFALGNHHDNYDLWDSQYQEWNSVNIGPKKDILAGWAEAAKKNGLPFGISFHADHAWSWYEPAQRYDRHGEKAGVPYDGCLTKEDGKGKWWEGYDPQKLYAQNHPLSAGSWADGMIHRQWAWGNGVCIPTQEYVTNFYDRTVDAINRYNPDLIYFDVTGVPFYPISDAGLKIAAHFYNHNMVVRKGDFSAVMFGKILTDEQRKALVWDVERGSPNSIYEEPWQTCSCLGGWHYDTRLAENGWYKSASDVVKLLVDVVSKNGNLLLSVPLRADGTFDEKEEAILNEFGNWMSMNKEAIYDTRPWKVFGEGPIANADIKINAQGFNEGAYTKATASEIRFTQTKKYLYATVLAWPEEKQVVIQSLATGSELYPDKITKIELLGYGKVSFTRTAQGVVIDMPDVQLNKIAPVFKIKKEGHHHHHH”, the “soluble on expression in E. coli” value was “soluble”.
With “MGSDKIHHHHHHMERTSDYWFMIEPYVHINIANGYMLLYNTLDKETIISNNEKVINLLEELLQDENCGVTILKNEQYRQNDIHSFITNLREKYMGDIIDISLSKGKPIQILPHTNFCNKRNEKYNFIKNANLLHFLNEIIIHLDHILDQDKLIDYLQSMPDNITYSISGDLKHIAKFDKLVDFLNQYNSSKKIICNYINFAIPASVCKNIFLYKIHIHFPIDIKQLIITTQSLKDQNNLFELIFDIASLDDYLKAWEIIEEYQIDKYQFNPIYTGYNIDFFKENVFLKKSDILSTSMSIKDFFIKQMINNNDFGKINIMPNGDVHSNINYPALGNICTHSIFELIQKEIEEGKSWLRVRNQEPCNACIYQWLCPSPSDYEIMIGQTNLCHVNIHNPNCENL” the “soluble on expression in E. coli” value was “not soluble”.
For “MQANAIDFENYELLQDDVCARRIVAAKQKLGKRAIILAHHYQRADVYCHADLTGDSLKLSYLAARTDTEFLVFCGVHFMAEVADILSSSEQTVILPDLSAGCSMADMANLTKVERVWRELAEVLDPDERVTPVTYINSSADLKAFCGQHDGIVCTSSNAVKILQWAFSRREKVLFFPDQHLGRWSGYKMGLSPDEMPVWDFDEPMGGLTPEQIEKARILLWKGHCSVHQMFQPQHILRFRNQYPDGLVISHPECSFEVCKASDYVGSTEYIINTIRAAKSGTRWLVGTELNLVGRIAEEFKAEGKIIQFMSPMVCMCSTMARIDPQHLAWSLENLAEGRVVNQIRVPEPQASLAKLTLEKMLEVSKLEHHHHHH”, the “soluble on expression in E. coli” value was “not soluble”.
For “MKCSKCGREAIYFARYEGRYYCHKHFNELVEGKVKRTIRKYRMIKRGEKVGVAVSGGKDSVVLMHILAKLRKKFPFELVAITIDEGIKGYRDKSVEVARKNAELLGVEHHIYRFKDFIGFTLDETVEIMGPREERVGACSYCGVWRRWLLNKAAEELGVDKLALGLNLDDEVQVFLMNLMRGDVARLGRTGPYYEVIHEGLVPRIKPLREVPEKEIVLYAVLNNIEVDLSECPYATEAFRAEIRDWLNEMEEKHPGTKYQLLRSYDKIFPLLAKTYAKEVKLNRCKICGQPTSGEICKACQFRLQVKEKSENLKFSLTK”, the “soluble on expression in E. coli” value was “not soluble”.
For “MGSDKIHHHHHHCNFDGRPCCWANVPPPDDQLDWQIASGVPVQLQNRGVPQPEGSYLIAYAKSAAPSDEAQFASCSIGCASSDIVVRAKHWQSESVLLQVCLRESFPSNAERNPLINCQEFPYVDGMGTTEVILPKTSLVDIVFVASNFIGDQGDVAILDDIEVSYDRNGSECQN”, the “soluble on expression in E. coli” value was “not soluble”.
In the case of “MLRTEHYAFLPCISRALEERDSLGIRRELRARQQRLSMQQSRSKLGRVCVTGANSPLGQELVGALTRTPDPSLRPDAIGVIGARDPIESHSAGAGLHFPGPGVDFLECAATDLEHYNPRTLFSINDDDLGLRRRSIFRENQVVIDLLRAQGETNEPRSKTRLVLVTLLGCGDSEDAIPSQAFDVLRPLLLELSRVEQYVRESGLPYTIVRPGALEHGDADSRAIVSESKVGFGTIHRSTLAHLLLNVAASEKAVNKTLMALDMNRLLVAAPYVRPFEVWESPPFEVFDL”, the “soluble on expression in E. coli” value is reported as “soluble”.
For “MHGSQKDTTFTKIFVGGLPYHTTDASLRKYFEGFGDIEEAVVITDRQTGKSRGYGFVTMADRAAAERACKDPNPIIDGRKANVNLAYLGAKPRSLQTGFAIGV”, the “soluble on expression in E. coli” value was “soluble”.
With “MNEMWLHRADLAESAINERHASRLWMLPRTNLAVVAWPPTAKERLFYRWHYWWQAHYLDCLIDAASRRTTKARKQRIRDTIVGIRLRNLGRLTKNNYYDDKSWLALALDRERRLNKRAKREYLRVLEGNIAAGQDDIQGVLPWRVGEHFFNVPTNGPAAIMLARNGEVEQARKLVDWIFDNLINDKGLVMDGLRMSMRGPEIVDPVYPYCQGVVIGACIEIAEALPFEESVQYLAHARAVIHAVAKEMATPEGVINAATGDGDGGLFKGILMRYLADAAVRLPEDGPANIATKKIAKRLVMASAESVWEHRLEVDGLPVFATDWCDDARLPHNYGVGGSALSDIVRVVRIDERDLSVQLSGWMLLEAAARVSLVDLEHHHHHH” the “soluble on expression in E. coli” value was “soluble”.
For “QVQLQESGPGLVKPSETLSLTCTVSGASISSYYWSWIRQPPGKGLEWIGYIGGEGSTNYNPSLKSRVTISVDTSKNQFSLKLRSVTAADTAVYYCARERLGIGDYWGQGTLVTVSSASTKGPSVFPLAPSSKSTSGGTAALGCLVKDYFPEPVTVSWNSGALTSGVHTFPAVLQSSGLYSLSSVVTVPSSSLGTQTYICNVNHKPSNTKVDKKVEPK”, the “soluble on expression in E. coli” value was “soluble”.
For “MGHRSRSNSRSQSRSRENSRGRSRSASKSPVYHRRERESSRSRSPRARYGGGGGGGGGGGRGRNQQYDRENPQPSKCLGVFNLSSYTTEKDLRDVFGEFGEINKCDLVYDRPSGNSRGFGFIYFNLIEDATAARDKLCNTDLDGHKIRVDFSLTKRGHSPTPGQYMGDRRGGGSSGGGRFGGGGGDRFNDRGSRGGDRYGGDRRGGGGGGGGDRYGGGGGDRYGGDRYGGGGGRRGSPDRRGGFRSGGGGGGYMRSGGGGGGPDRRDHRDNDRNGGGGGHRPYDPSFRRRVESYGSGNSGGGGGRRDRY”, the “soluble on expression in E. coli” value was “not soluble”.
With “PQEKLIFTLDSADRAYRVLVEAMNEGTATLASDGTILYCNRQFAELTKMSSGAVVGTSIYGFIAPEDAITFKALLKQKNSVGELKFRAQGGTSVPVYLSISSLQSEGSPSAWCLVVTDL” the “soluble on expression in E. coli” value was “not soluble”.
In the case of “MKPLLTAMFGATLATASTLASAEVAVIMNAGASAAPSQAEVANIFLGKDTSLKGLDQKGWNPTKERFYSALTNKNESQLKSYWSGLVFTGKGQPLQSVDDDAAVIAKVGSEANAIGYIDTSAVNDKVKVLFTLP”, the “soluble on expression in E. coli” value is reported as “not soluble”.
